Measurements as given in paper PMC5064014, “SUMOylated NKAP is essential for chromosome alignment by anchoring CENP-E to kinetochores” (Nature Communications, 2016).

B1: GST-NKAP deletion mutant aa 139–276 (domain or fragment, human, UniProt Q8N5F7 139-276, looked up)
chain: ELGAPEVWGLSPKNPEPDSDEHTPVEDEEPKKSTTSASTSEEEKKKKSSRSKERSKKRRKKKSSKRKHKKYSEDSDSDSDSETDSSDEDNKRRAKKAKKKEKKKKHRSKKYKKKRSKKSRKESSDSSSKESQEEFLEN
notes: The text names the region; source: E. coli DH5α, purified (glutathione Sepharose 4B)
B2: GST-NKAP deletion mutant aa 1–138 (domain or fragment, human, UniProt Q8N5F7 1-138, looked up)
chain: MAPVSGSRSPDREASGSGGRRRSSSKSPKPSKSARSPRGRRSRSHSCSRSGDRNGLTHQLGGLSQGSRNQSYRSRSRSRSRERPSAPRGIPFASASSSVYYGSYSRPYGSDKPWPSLLDKEREESLRQKRLSERERIG
notes: as for B1

Molecular target: T1, human His-Bub3 full-length recombinant protein (human, UniProt O43684 1-328)
T1 construct: Bub3, human, full-length recombinant protein; also called Recombinant His-Bub3; source: bought: Abcam (ab139802)
T1 sequence (O43684 whole entry): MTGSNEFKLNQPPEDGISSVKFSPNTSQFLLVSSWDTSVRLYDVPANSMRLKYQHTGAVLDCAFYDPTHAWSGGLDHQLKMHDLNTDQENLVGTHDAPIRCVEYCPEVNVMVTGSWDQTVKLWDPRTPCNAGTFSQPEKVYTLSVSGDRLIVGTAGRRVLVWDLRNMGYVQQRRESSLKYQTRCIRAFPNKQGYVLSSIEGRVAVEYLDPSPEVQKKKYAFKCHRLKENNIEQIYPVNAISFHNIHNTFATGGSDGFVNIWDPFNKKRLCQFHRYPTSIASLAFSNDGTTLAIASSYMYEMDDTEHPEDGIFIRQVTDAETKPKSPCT
Assay: pull-down; recombinant His-Bub3 incubated with GST, GST-NKAP and its deletion mutants; 50 mM Tris–HCl pH 7.5, 150 mM NaCl, 1 mM EDTA, 0.3 mM dithiothreitol, 0.1% NP-40; overnight at 4 °C; bound protein by immunoblot
Details: both partners purified

Row | Binder | binding result
1 | B1 | binds
2 | B2 | binds
